The source of these data is patent US20250066490A1 (PROFOUNDBIO US, published 2025).

The target of test [1] is T1, CD70 ECD (antigen immobilized on the CM5 chip) (UniProt P32970 39-193).
T1 construct: extracellular domain; also called CD70 antigen
T1 sequence (looked up): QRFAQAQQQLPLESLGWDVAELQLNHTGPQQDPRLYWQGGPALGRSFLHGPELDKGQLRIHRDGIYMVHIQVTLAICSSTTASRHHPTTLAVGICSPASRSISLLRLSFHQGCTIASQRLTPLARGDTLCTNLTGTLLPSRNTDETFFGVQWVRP
In words: SPR (Biacore T200), CD70 ECD on CM5 chip, IgG as analyte. The method, then:
The immobilization of antigen CD70 ECD was performed at 25° C. with HBS-EP as the running buffer. Sensor chip surface of flow cells 1, 4 were activated by freshly mixed 50 mmol/L N-Hydroxy succinimide (NHS) and 200 mmol/L 1-ethyl-3-(3-dimethylaminopropyl) carbodiimide hydrochloride (EDC) for 420s (10 μL/min). Afterwards, CD70 antigen diluted in 10 mmol/L NaAC (pH 4.5) was injected into flow cell 4 to achieve conjugation of the appropriate Response Unit, while flow cell 1 was set as a blank. After the amine coupling reaction, the remaining active coupling sites on chip surface were blocked by 420s injection of 1 mol/L ethanolamine hydrochloride.
The assay was performed at 25° C. and the running buffer was HBS-EP. Diluted antibodies were injected over the surface of flow cells 1 and 4 during the association phase, followed by injecting running buffer as the dissociation phase. All the data were processed using Biacore T200 Evaluation software version 3.1. Flow cell 1 and a blank injection of buffer in each cycle were used as a double reference for Response Units subtraction. Kinetic data of the interaction between the antibodies and CD70 antigen were obtained through affinity measurement.
(Surface plasmon resonance follows binding to a sensor surface in real time, without labels.)

Test [2] has as its target T2, human CD70 expressed on the cell surface of tumor cell lines (human, UniProt P32970 1-193).
T2 construct: whole, on cells
T2 sequence (looked up): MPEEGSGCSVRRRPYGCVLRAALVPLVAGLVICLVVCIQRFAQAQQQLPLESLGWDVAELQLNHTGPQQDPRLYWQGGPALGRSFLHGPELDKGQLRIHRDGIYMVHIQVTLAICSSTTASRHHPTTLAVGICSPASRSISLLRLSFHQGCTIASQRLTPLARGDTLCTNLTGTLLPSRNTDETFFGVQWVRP
Put plainly: flow cytometry on DBTRG-05MG cells. The method, then: The lead antibodies were tested for binding to renal carcinoma cells and glioblastoma cells expressing CD70 on the cell surface by flow cytometry. […] U251 cells were cultured with MEM medium containing of 10% FBS and 1% NEAA+1 mM sodium pyruvate. DBTRG-05MG cells were cultured with DMEM medium (Gibco, Cat #C11995500BT) containing of 10% FBS. Each of the lead antibodies and the controls were incubated for 30 mins with the different cell lines (3×10⁵ cells per well) in 0.2 ml FACS buffer (1×PBS with 0.1% BSA) at 4° C. Then, the cells were pelleted, washed, and incubated at 4° C. for 30 mins with 100 μl of 1:200 diluted PE-conjugated anti human Fc (Abcam, Ab98596) in FACS buffer. The cells were pelleted again, washed with PBS, resuspended in FACS buffer and analyzed by flow cytometer (Beckman, CytoFLEX).
Antibodies 2H8 and 2D2 had slightly higher binding ability to the cell lines than that of antibody 69A7.

B1: 2E7, full IgG (antibody, V domains shown)
VH: QVQLQESGPGLVKPSETLSLTCTVSGGSVSSDYYYWSWIRQPPGKGLEWLGYIYYSGSTNYNPSLKSRVTISVDTSKNQFSLKLRSVTTADTAVYYCARGDGDFLGVCFDYWGQGTLVTVSS
VL: EIVLTQSPATLSLSPGERATLSCRASQSVSSYLAWYQQKPGQAPRLLIFDASNRATGIPARFSGSGSGTDFTLTISSLEPEDFAVYYCQQRSNWPLTFGGGTKVEIK
Broadly, the Kd is the equilibrium constant for the complex coming apart. The koff is the rate constant with which the complex falls apart. Higher therefore signals a short-lived complex. As a reminder, the kon is a measure of how fast the partners come together. What is called EC50 is the concentration that produces a half-maximal response. Low values mean a more potent agent, high ones a less potent agent. In test [1], B1 gave a Kd of 14 nM, a koff of 0.00106 s⁻¹ and an association rate constant (kon) of 75400 M⁻¹ s⁻¹. Also, the EC50 in test [2] is 6.11 nM.
